Where a chain is given by its changes, count along the chain named.
B1: P1A2.2B11: murine anti-human IGF-1R monoclonal antibody from hybridoma; VH SEQ ID NO:48, VL SEQ ID NO:108 (antibody, V domains shown)
VH: QIQLVQSGPELKKPGETVKISCKASGYTFTNHGMNWVKQAPGKGLKWMGWNTSTGEPTYADDFKGRFAFSLETSASTAFLQINNLKNEDTASYFCASPLYYMYGRYIDVWGAGTAVTVSS
VL: DIQMTQTTSSLSASLGDRVTISCRASQDISNYLNWYQQKPDGTIKLLIYYTSRLHSGVPSRFSGSGSGTDYSLTISNLEQEDFATYFCQQGKTLPWTFGGGTKLEIK
modifications: Antibody variable heavy chain sequence; Antibody variable light chain sequence
B2: P1G10.2B8: murine anti-human IGF-1R monoclonal antibody from hybridoma; VH SEQ ID NO:58, VL SEQ ID NO:113 (antibody, V domains shown)
VH: QIQLVQSGPDLKKPGETVKISCKASGYTFTNHGMNWVKQAPGKDLKWMGWINTNTGEPTYADDFKGRFAFSLETSASTAYLQINNLKNEDTATYFCASPLYYRNGRYFDVWGAGTTVTVSS
VL: B1 VL with T43S, I44V, F83I
modifications: Antibody variable heavy chain sequence; Antibody variable light chain sequence
B3: P1E2.3B12: murine anti-human IGF-1R monoclonal antibody from hybridoma; VH SEQ ID NO:63, VL SEQ ID NO:118 (antibody, V domains shown)
VH: QVQLQQPGAELVKPGASVKLSCKASGYTFTSYWMHWVKQRPGQGLEWIGEINPTYGRSNYNEKFKSKATLTVDKSSSTAYMQLSSLTSEDSAVYYCARLVRLRYFDVWGAGTTVTVSS
VL: DIVMTQAAFSNPVTLGTSASISCRSSKSLLHSNGITYLYWYLQKPGQSPQLLIYQMSNLASGVPDRFSSSGSGTDFTLRISRVEAEDVGVYYCAQNLELPYTFGGGTKLEIK
modifications: Antibody variable heavy chain sequence; Antibody variable light chain sequence
B4: P2A7.3E11: murine anti-human IGF-1R monoclonal antibody from hybridoma; VH SEQ ID NO:38, VL SEQ ID NO:98 (antibody, V domains shown)
VH: QVQLQQSGPELVKPGASVKMSCKASGNTFTDYVINWVKQRTGQGLEWIGEIYPGNENTYYNEKFKGKATLTADKSSNTAYMQLSSLTSEDSAVYFCARGIYYYGSRTRTMDYWGQGTSVTVSS
VL: EVVLTQSPTAMAASPGEKITITCSASSTLSSNYLHWYQQKPGFSPKLLIYRTSNLASGVPGRFSGSGSGTSYSLTIGTMEAEDVATYYCQQGSSIPLTFGAGTKLELK
modifications: Antibody variable heavy chain sequence; Antibody variable light chain sequence

Each molecule was assayed against T1, IGF-1R (Homo sapiens, UniProt P08069) (assay: Ligand blocking assay (RIA): 125I-IGF-1 / 125I-IGF-2 binding to immobilized IGF-1R). Settings: murine monoclonal antibodies.
T1 construct: human IGF-1R(1-903)-Fc (denoted hIGF-1R-Fc, generated by Biogen Idec)
Description: Ligand blocking assay (RIA). […] Insulin (Arg-Insulin, Cat #01-207) was purchased from Upstate Cell Signaling Solutions (Lake Placid, N.Y. (now part of Millipore, Concord, Mass. (USA)). ^125I-rhIGF-1 (Cat # IM172), ^125I-rhIGF-2 (Cat# IM238) and ^125I-rhInsulin (Cat# IM166) were purchased from Amersham Biosciences (Piscataway, N.J.). AffiPure goat anti-human IgG, Fcγ fragment specific antibodies (Cat #109-005-098, Jackson ImmunoResearch, West Grove, Pa.) was used for IGF-1R-Fc capture. As detection antibody, goat anti-mouse IgG HRP (Cat #1030-05, Southern Biotech Birmingham, Ala.) was used.
Human insulin receptor α-subunit specific antibodies, Clone 83-14, (Cat #AHR0221, Biosource International, Inc., Camarillo, Calif.) and the 47-9 (Cat #E55502M, Biodesign International, Saco, M E) were used as positive controls blocking of insulin-insulin receptor binding experiments. Recombinant IGF-1R-Fc fusion protein was produced at Biogen Idec (Cambridge, Mass.).
As isotype matched mouse negative control antibodies, 2B8 (murine α-CD20.1gG,) and 2B8 mkm.G2a (murine α-CD20 MAb, IgG2a, Biogen Idec, Lot #NB3304-87, San Diego, Calif.) were used. The negative control for Fabs was R001-1B provided by Christilyn Graff (Biogen Idec, Cambridge, Mass.). PBS used in buffers was from BioWhittaker (Cat. # 17-513F, Walkersville, Md.).
Recombinant human IGF-1R (Histidine tagged version) or IGF-1R-Fc was coated onto IMMULON2 HB (high binding) Removawell strips (Dynex Technologies, Inc., cat. #6302) diluted with carbonate coating buffer pH 9.5 to a concentration of 250 ng/well. After overnight incubation at 4° C., the wells were washed three times with washing buffer (0.05% Tween 20/PBS) then blocked with blocking buffer (3% BSA/PBS) for one hour at room temperature. The blocking buffer was removed and the wells washed three more times. Antibody, Fab, or ligand preparations were diluted to desired concentration with dilution buffer (1% BSA/0.05% Tween 20/PBS) and plated at 50 μl per well in duplicate. After 45 minutes at room temperature, 100,000 cpm of either [125I] rhIGF-1 or [125I] rhIGF-2 in 50 μl dilution buffer was added per well. This was incubated at room temperature for one more hour. The wells were washed again three more times and left liquid free after the last wash. The air-dried wells were counted with the Isodata Gamma Counter.
Alternatively, Fabs were evaluated by a modified capture assay, where the IGF-1R-Fc was captured using anti-human IgG immobilized to a plate. Immobilization was carried out by overnight incubation of goat anti-human IgG, Fcγ fragment specific antibody (200 ng/well) in carbonate coating buffer. The wells were washed, blocked and 250 ng of IGF-1R-Fc was added per well.
The ligand blocking ability of the anti-IGF-1R antibody was determined by a solid phase RIA capture method as described in Example 3. […] After 1 hour of incubation at room temperature, the wells were washed and counted for bound radioactivity by a Gamma Counter. An isotype matched negative antibody control, IDEC-151 (human G4), was used. Percent (%) inhibition was calculated as =[1−(Ave.CPM with Ab)/(Ave.CPM with buffer)]×100%.

IGF Blocking IGF-1	Molecule
+++ (>40%@0.1 μg/ml)	B1
+++ (>40%@0.1 μg/ml)	B2
+++ (>40%@0.1 μg/ml)	B3
+++ (>40%@0.1 μg/ml)	B4

These molecules were tested against T2, IGF-1R phosphorylation (Homo sapiens, UniProt P08069) (assay: Inhibition of IGF-1 and IGF-2 mediated IGF-1R phosphorylation in MCF-7 cells (ELISA)). Settings: murine monoclonal antibodies.
T2 construct: wild type IGF-1R expressed on MCF-7 tumor cells; endogenous in cells; host or cells: MCF-7
Type: cell-based
Procedure: Cell lines: IGF1R expressing human breast carcinoma cell line MCF-7 (NCI) were maintained at 37° C. and 5% CO2 in MEM eagle (ATCC) containing 10% FBS, 1× non-essential amino acids, 2 mM L-glutamine, 1 mM sodium pyruvate and 1000 U/ml penicillin and streptomycin. Cells were sub-cultured twice weekly for maintenance and assay, and used with a maximum of 12 passages.
MCF-7 cells were plated in 2 ml growth media at 2×10^5 to 4.0×10^5 cells/well in Ploy-D-Lysine coated 12 well plates (BD Biosciences, #35-6470) and cultured at 37° C., 5% CO2. At 48 hours, media removed and cells serum starved overnight at 37° C., 5% CO2 Serum free media was removed and control or test antibodies at indicated concentration were added in 350 ul of fresh serum free media and incubated for 1 hour at room temperature, or alternately at 37° C. Fabs were tested at 200 nM, 20 nM and 2 nM concentration and the mAbs were tested at 67, 6.7 and 0.67 nM. The commercial anti-IGF-1R control antibody used was αIR3 (EMD biosciences, Oncogene Research products, #D27249). […] Ligand was incubated at […] for 37° C. antibody experiments. Cells were lysed in 1× cell lysis buffer (Cell Signal Technologies, #9803) with 1 mM PMSF for 1 hour at room temperature.
Cell lysates were added to ELISA plates pre-coated with IGF-1Rp antibody (Clone 1-2, Biosource International, #AHR0361) and incubated for 2 hours. Following which plates were washed and the plate bound phosphorylated receptor was detected with the biotin labeled anti-phosphotyrosine antibody 4G10 (Catalog #16-103, Upstate Cell Signaling Solutions (Lake Placid, N.Y. (now part of Millipore, Concord, Mass. (USA)) and streptavidin-HRP (BD Pharmingen, #554066). Assay is developed by addition of TMB substrate (Kierkegaard & Perry, #50-76-00) and color stopped by addition of […] (LabChem, Cat#LC25830-1). Optical density is measured at 450 nm using a Molecular Devices plate reader and percent inhibition over the ligand control is calculated for each antibody-ligand sample.
The effect of human anti-IGF-1R antibodies on IGF-1R signaling was evaluated using MCF-7 cells (human breast adenocarcinoma cells).

Inhibition of IGF-1R.pTyr IGF-1	Inhibition of IGF-1R.pTyr IGF-2	Molecule
+++ (>30%@0.1 μg/ml)	+++ (>30%@0.1 μg/ml)	B1
+++ (>30%@0.1 μg/ml)	+++ (>30%@0.1 μg/ml)	B2
+++ (>30%@0.1 μg/ml)	+++ (>30%@0.1 μg/ml)	B3
+++ (>30%@0.1 μg/ml)	++ (>30%@1 μg/ml)	B4

The molecules below were run on MCF-7 (assay: Ki67 inhibition in MCF-7 cells). Settings: breast cancer cell.
Type: cell-based, human

Molecule	Proliferation of Tumor Cells MCF-7* (Ki67 Inhibit.)
B1	++ (>50%@1 μg/ml)
B2	+++ (>50%@0.1 μg/ml)
B3	++ (>50%@1 μg/ml)
B4	++ (>50%@1 μg/ml)

What follows are molecules tested on NCI-H23 (assay: IGF driven tumor cell growth, CELL TITER-GLO, H-23). Settings: NCI-H23 lung tumor cell line.
Type: cell-based, human
Procedure: (§1) NCI-H23, Calu-6, Colo-205, Panc-1, BxPC-3 (ATCC) tumor lines were purchased from ATCC. Cell lines were grown in complete growth medium containing RPMI-1640 (ATCC), 10% fetal bovine serum (Irvine Scientific Inc.) and 50 μg/ml of Gentamycin (Gibco, Invitrogen). Trypsin-EDTA solution (Sigma) was used for removal of adherent cells from culture vessels. Phosphate buffered saline, pH 7.2, was from MediaTech Inc The 96-well clear bottom plates for luminescent assay was purchased from Wallac Inc.
(§2) Cells grown to 80% monolayers were, trypsinized, washed, resuspended and plated into 96-well plates in 200 μl of 2% growth medium at 8×10^3 cells/well for NCI-H23 and Colo-205 cells; and 5×10^3 cells/well for Calu-6, Panc-1 and BxPC-3 cells. After 24 hours, the culture medium was replaced with 100 μl of serum free medium (SFM), and 50 μl of serially diluted antibodies at 4× concentration was added. […] All treatments were done in triplicates. Cell growth was measured using the CELL TITER-GLO™ Luminescent Cell Viability Assay (Promega, Madison, Wis.). The 1:1 mixture of reagent and SFM was added at 200 μl/well. Luminescence was detected on Wallac (Boston, Mass.) plate reader.
(§3) The ability of the selected murine antibodies to inhibit IGF/IGF-1R dependent in vitro growth of several human tumor lines (Lung, H-23, Calu-6; Pancreas, BxPc-3, Panc-1, MiaPaCa and Colon Colo205) was measured by a proliferation assay described in Example 13.
A commercially available anti-IGF-1R antibody (IR3) was used as a positive control. The mouse IgG (anti-IDectin, IgG1) and human gamma 4 version of IDEC-152 antibody of irrelevant specificity were used as isotype matched controls for the experiments. […]

Molecule	inhibition of IGF-1 and IGF-2 driven cell proliferation in H-23
B1	showed inhibition
B4	showed inhibition

Same assay, conditions: lung cancer cells

Molecule	Proliferation of Tumor Cells H-23
B1	+++ (>30%@0.1 μg/ml)
B2	+++ (>30%@0.1 μg/ml)
B3	++++ (>30%@0.01 μg/ml)
B4	++++ (>30%@0.01 μg/ml)

These molecules were tested on Calu-6 (assay: IGF driven tumor cell growth, CELL TITER-GLO, Calu-6). Settings: lung cancer cells.
Type: cell-based, human
Procedure: as §1, §2, §3

Molecule	Proliferation of Tumor Cells Calu-6
B1	++ (>30%@1 μg/ml)
B2	++ (>30%@1 μg/ml)
B3	++ (>30%@1 μg/ml)
B4	+++ (>30%@0.1 μg/ml)

The molecules below were run on Panc-1 (assay: IGF driven tumor cell growth, CELL TITER-GLO, Panc-1). Settings: pancreatic cancer cell.
Type: cell-based, human
Procedure: as §1, §2, §3

Molecule	Proliferation of Tumor Cells Panc-1
B1	+++ (>30%@0.1 μg/ml)
B2	+ (>30%@10 μg/ml)
B3	++ (>30%@1 μg/ml)
B4	++++ (>30%@0.01 μg/ml)

The molecules below were run on Colo-205 (assay: IGF driven tumor cell growth, CELL TITER-GLO, Colo-205). Settings: colon cancer cell.
Type: cell-based, human
Procedure: as §1, §2, §3

Molecule	Proliferation of Tumor Cells Colo-205
B1	+++ (>30%@0.1 μg/ml)
B2	++ (>30%@1 μg/ml)
B3	++ (>30%@1 μg/ml)
B4	+++ (>30%@0.1 μg/ml)
